Source: paper PMC9158119 (Frontiers in Immunology, 2022)

How the values were obtained:
[1] = molecular target: T1, SARS-CoV-2 original strain spike receptor-binding domain (S-RBD) (SARS-CoV-2, UniProt P0DTC2)
[2] = molecular target: T1, SARS-CoV-2 original strain spike …; assay: SPR; conditions: both partners purified

B1: Nb-002 (VHH)
VHH: EVQLVESGGALVQPGGSLRLSCAASGFTLDAAAIGWFRQAPGKEREWVSCINRVGGGFYSDSAKGRFTISRDNDKNTVYLQMNSLKFEDTAVYYCAADSDSPRFGCSDSRARYEYWGQGTQVTASS
- binding result [1]: binds

B2: Nb-006 (VHH)
VHH: QVQLVESGGGLVQAGESLRLSCAASGSTVSPYTMGWYRQAPGKQREWVATIRSDRSTNYADSVLGRFTISRDNAKNTVYLQMNSLKPEDTAVYQCYALQGGLLLGQGTQVTVSS
- binding result [1]: binds

B3: Nb-010 (VHH)
VHH: EVQVVESGGGLVQAGGSLRLSCTASGSTFTRYPMGWYRQAPGKQRELVAGFTVVGATIYADSVKGRFALSRDNAKKTIDLQLDSLKPDDTGVYYCSMYTYWGQGTQVTVSS
- binding result [1]: binds

B4: Nb-008 (VHH)
VHH: EVQVVESGGGLVQAGGSLRLSCAASGSTSNLRVTGWYRQTPGKQRELVAAISNAGATVYPDSVAGRFTLSRDNAKNTVTLQINSLKPEDTAVYYCNARRFGRDYWGQGTQVTVSS
- binding result [1]: binds

B5: Nb-005 (VHH)
VHH: EVQLVESGGGLVQAGGSLRLSCAASGSAFNDYAMGWYRQAPGKQRELVARFTNVGATLSSNSVKGRFTISRDNAKNTVFLQMNSLKPEDTAVYYCHAGHRILLGREYWGQGTQVTVSS
- binding result [1]: binds

B6: Nb-007 (VHH)
VHH: QLQLVESGGGLVQAGGSMRLSCAASISFSSFPMGWHRQAPGKQRELVAKTGIGGTAYDDSVKGRFTISRDNTKNTVYLQMNSLKVEDTAVYYCWGWRMNDYWGQGTQVTVSS
- Kd [2]: 0.0674 nM

B7: Nb-003 (VHH)
VHH: EVQVVESGGGLVQAGGSLRVSCAASGSTSSRYIMAWYRQAPGKQRELVASITLVGATIYKDSVKGRFTISGDNAKKTVYLQMNNLKPEDTAVYYCNQIDPLIGGPGYWGQGIQVTVSS
- binding result [1]: binds

B8: Nb-004 (VHH)
VHH: QLQLVESGGGLVQAGGSLGLSCAASGITLGDYRMGWYRQAPGKQRELVARFTNAGAILYGDSVKGRFTISMNNAKNTVYLQINSLKPEDTAVYYCNARTTRGIDNWGQGTQVTVSS
- binding result [1]: binds

B9: Nb-001 (VHH)
VHH: EVQLVESGGGLVQAGGSLRLSCAASGSIFRLYTIDWYRQAPGKQRELVATISGTSPTNYADSVKGRATISRDNAKNTVYLQINSLKPEDTAVYYCHTVSGNTWGQGTQVTVSS
- binding result [1]: binds
